Test results reported in US20170247475A1 (Boehringer Ingelheim, published 2017).
Values belong to the binder of their own block, whether it stands above or below them.

How the values were obtained:
[1] = target: T1, recombinant human VEGF165 (human, UniProt P15692-4 27-191); test: binding ELISA, coated rhVEGF165
T1 construct: also called hVEGF165; rhVEGF165

[2] = target: T1, recombinant human VEGF165; test: VEGF165/hVEGFR1-Fc competition AlphaScreen
Description: (§1) Finally, streptavidin donor beads (20 μg/ml) are added and after 1 hour of incubation in the dark, fluorescence is measured on the Envision microplate reader.

[3] = target: T1, recombinant human VEGF165; test: VEGF/VEGFR1 competition AlphaScreen
Description: as §1

[4] = target: T1, recombinant human VEGF165; test: VEGF165/hVEGFR1-Fc competition ELISA
[5] = target: T2, recombinant mouse VEGF164 (mouse, UniProt Q00731-2 27-190); test: binding ELISA, coated rmVEGF164
T2 construct: biotinylated in the mVEGFR2 AlphaScreen; also called rmVEGF164; mVEGF164
T2 sequence (looked up): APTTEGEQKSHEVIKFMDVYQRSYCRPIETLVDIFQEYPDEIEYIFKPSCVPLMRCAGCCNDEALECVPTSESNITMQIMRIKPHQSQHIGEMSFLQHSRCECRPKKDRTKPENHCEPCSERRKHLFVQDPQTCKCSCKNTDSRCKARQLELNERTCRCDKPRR
Description: (§2) Cross-reactivity to mouse VEGF164 is determined using a binding ELISA. […] Wells are blocked with a casein solution (1% in PBS). […] A mouse VEGF164 reactive mAb is included as positive control.

human VEGF-D = target: T3, human VEGF-D (human, UniProt O43915 93-201); test: binding ELISA on coated VEGF D
T3 construct: also called hVEGF-D
T3 sequence (looked up): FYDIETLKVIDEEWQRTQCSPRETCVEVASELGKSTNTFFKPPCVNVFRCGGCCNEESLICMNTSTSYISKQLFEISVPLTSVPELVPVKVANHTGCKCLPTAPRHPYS
Description: (§3) Binding to VEGFB, VEGFC, VEGFD and PIGF is assessed via a solid phase binding ELISA. In brief, VEGFB, VEGFC, VEGFD and PIGF (R&D Systems, Minneapolis, Minn., USA) are coated overnight at 4° C. at 1 μg/mL in a 96-well MaxiSorp plate (Nunc, Wiesbaden, Germany). Wells are blocked with a casein solution (1% in PBS). […] As positive controls serial dilutions of the appropriate receptors are taken along and detected with horseradish peroxidase (HRP)-conjugated goat anti-human IgG, Fc specific antibody (Jackson Immuno Research Laboratories Inc., West Grove, Pa., USA) and a subsequent enzymatic reaction in the presence of the substrate TMB (3,3′,5,5′-tetramentylbenzidine) (Pierce, Rockford, Ill., USA).

human VEGF-C = target: T4, human VEGF-C (human, UniProt P49767 103-227); test: binding ELISA on coated VEGFC
T4 construct: also called hVEGF-C
T4 sequence (looked up): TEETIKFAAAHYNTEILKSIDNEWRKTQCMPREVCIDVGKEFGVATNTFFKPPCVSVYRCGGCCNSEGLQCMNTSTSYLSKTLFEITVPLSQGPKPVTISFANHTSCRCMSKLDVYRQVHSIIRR
Description: as §3

human VEGF-B = target: T5, human VEGF-B (human, UniProt P49765-2 22-188, limits assumed); test: binding ELISA on coated VEGFB
T5 construct: also called hVEGF-B
T5 sequence (looked up): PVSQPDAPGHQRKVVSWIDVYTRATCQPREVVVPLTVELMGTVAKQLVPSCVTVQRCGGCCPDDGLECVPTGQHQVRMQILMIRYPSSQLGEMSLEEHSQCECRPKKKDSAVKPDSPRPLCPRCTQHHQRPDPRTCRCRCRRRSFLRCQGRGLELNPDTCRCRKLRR
Description: as §3

[6] = target: T1, recombinant human VEGF165; test: hVEGF165/hVEGFR2-Fc competition ELISA
VEGF [7] = test: cell-based or functional assay
[8] = target: T1, recombinant human VEGF165; test: SPR Biacore T100, hVEGF165 on chip, Two State Reaction model
Description: (§4) Samples are injected for 2 min and allowed to dissociate up to 20 min at a flow rate of 45 μI/min. In between sample injections, the chip surface is regenerated with 100 mM HCl. HBS-EP+(Hepes buffer pH7.4+EDTA) is used as running buffer. Binding curves are fitted using a Two State Reaction model by Biacore T100 Evaluation Software v2.0.1.
(§5) ^{(a)}KD = kd1/kₐ₁ * (kd2/(kd2 + kₐ₂)) ^{(b)}Curves are fitted using a Two State Reaction model by Biacore T100 Evaluation Software v2.0.1

VEGF [9] = test: cell-based or functional assay; remark: listed apart in the source
[10] = target: T1, recombinant human VEGF165; test: SPR Biacore T100, Two State Reaction model; KD = kd1/ka1 * (kd2/(kd2 + ka2))
Description: as §4, §5

[11] = target: T1, recombinant human VEGF165; test: kd1; SPR Biacore T100, hVEGF165 on chip, Two State Reaction model
Description: as §4, §5

[12] = target: T1, recombinant human VEGF165; test: VEGF/VEGFR2 competition AlphaScreen
Description: as §1

human PIGF = target: T6, human PIGF (human, UniProt P49763-2 21-149, limits assumed); test: binding ELISA on coated PIGF
T6 construct: also called hPIGF; PLGF
T6 sequence (looked up): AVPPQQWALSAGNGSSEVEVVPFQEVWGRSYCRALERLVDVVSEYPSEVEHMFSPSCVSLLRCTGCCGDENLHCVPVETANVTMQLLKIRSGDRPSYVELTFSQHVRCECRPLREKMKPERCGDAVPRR
Description: as §3

[13] = target: T1, recombinant human VEGF165; test: hVEGF165/hVEGFR2-Fc competition AlphaScreen
Description: as §1

[14] = target: T1, recombinant human VEGF165; test: ka1; SPR Biacore T100, hVEGF165 on chip, Two State Reaction model
Description: as §4, §5

[15] = target: T7, recombinant human VEGF121 (human, UniProt P15692-9 27-147); test: binding ELISA, coated rhVEGF121
T7 construct: also called rhVEGF121; hVEGF121
T7 sequence (looked up): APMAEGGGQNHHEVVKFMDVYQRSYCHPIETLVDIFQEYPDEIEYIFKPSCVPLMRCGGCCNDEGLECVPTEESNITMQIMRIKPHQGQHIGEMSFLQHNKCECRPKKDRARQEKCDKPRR
Description: Binding to recombinant human VEGF121 is assessed via a solid phase binding ELISA. Briefly, recombinant human VEGF121 (R&D Systems, Minneapolis, Minn., USA) is coated overnight at 4° C. at 1 μg/mL in a 96-well MaxiSorp plate (Nunc, Wiesbaden, Germany). Wells are blocked with a casein solution (1% in PBS).

[16] = target: T2, recombinant mouse VEGF164; test: binding ELISA on coated mouse VEGF164
Description: as §2

EC50 [1]: 0.334 nM
% inhibition [2]: 100%
IC50 [2]: 0.012 nM
% inhibition [3]: 100%
IC50 [3]: 0.016 nM
% inhibition [4]: 97%
IC50 [4]: 0.254 nM
EC50 [5]: 0.502 nM
binding result (human VEGF-D): no binding (tested: 5e-7 M)
binding result (human VEGF-C): no binding (tested: 5e-7 M)
binding result (human VEGF-B): no binding (tested: 5e-7 M)
% inhibition [6]: 100%
IC50 [6]: 0.204 nM
% inhibition, VEGF HUVEC proliferation assay (VEGF [7]): 98%
IC50 (nM), VEGF HUVEC proliferation assay (VEGF [7]): 0.4 nM
ka2 [8]: 0.023 s⁻¹
kd2 [8]: 0.00019 s⁻¹
% inhibition, VEGF HUVEC Erk phosphorylation assay (VEGF [9]): 103%
IC50 (nM), VEGF HUVEC Erk phosphorylation assay (VEGF [9]): 0.21 nM
Kd [10]: 0.07 nM
koff [11]: 0.011 s⁻¹
IC50 [12]: 0.009 nM
binding result (human PIGF): no binding (tested: 5e-7 M)
% inhibition [13]: 100%
IC50 [13]: 0.007 nM
kon [14]: 1.2e+06 M⁻¹ s⁻¹
B1: VEGFBII021 (VHH)
chain: EVQLVESGGGLVQTGDSLRLSCEVSGRTFSSYSMGWFRQAQGKEREFVVAISKGGYKYDSVSLEGRFTISKDNAKNTVYLQINSLKPEDTAVYYCASSRAYGSSRLRLADTYEYWGQGTQVTVSSGGGGSGGGGSGGGGSGGGGSGGGGSGGGGSGGGGSGGGGSEVQLVESGGGLVQPGGSLRLSCVASGIRFMSMAWYRQAPGKHRELVARISSGGTTAYVDSVKGRFTISRDNSKNTVYLQMNSLKAEDTAVYYCNTFSSRPNPWGAGTQVTVSS
notes: biparatopic bivalent VHH in one chain; also called VEGFBII23B04-40GS-5B05

EC50 [1]: 0.668 nM
EC50 [15]: 0.475 nM
% inhibition [2]: 82%
IC50 [2]: 0.071 nM
% inhibition [3]: 82%
IC50 [3]: 0.039 nM
binding result [16]: binds
binding result (human VEGF-D): no binding (tested: 5e-7 M)
binding result (human VEGF-C): no binding (tested: 5e-7 M)
binding result (human VEGF-B): no binding (tested: 5e-7 M)
% inhibition [6]: 100%
IC50 [6]: 0.577 nM
ka2 [8]: 0.018 s⁻¹
kd2 [8]: 0.00037 s⁻¹
% inhibition, VEGF HUVEC Erk phosphorylation assay (VEGF [9]): 99%
IC50 (nM), VEGF HUVEC Erk phosphorylation assay (VEGF [9]): 0.23 nM
Kd [10]: 1.1 nM
koff [11]: 0.017 s⁻¹
IC50 [12]: 0.051 nM
binding result (human PIGF): no binding (tested: 5e-7 M)
% inhibition [13]: 100%
IC50 [13]: 0.051 nM
kon [14]: 330000 M⁻¹ s⁻¹
B2: VEGFBII025 (VHH)
chain: EVQLVESGGGLVQAGGSLRLSCAASGRTFSNYAMGWFRQAPGKERVLVADISSSGINTYVADAVKGRFTISRDNAKNTVYLQMNSLKPEDTAVYYCAASAWWYSQMARDNYRYWGQGTQVTVSSGGGGSGGGGSGGGGSGGGGSGGGGSGGGGSGGGGSGGGGSEVQLVESGGGLVQTGDSLRLSCEVSGRTFSSYSMGWFRQAQGKEREFVVAISKGGYKYDSVSLEGRFTISKDNAKNTVYLQINSLKPEDTAVYYCASSRAYGSSRLRLADTYEYWGQGTQVTVSS
notes: biparatopic bivalent VHH in one chain; also called VEGFBII10E07-40GS-23B04

EC50 [1]: 0.221 nM
% inhibition [2]: 87%
IC50 [2]: 0.048 nM
% inhibition [3]: 91%
IC50 [3]: 0.044 nM
binding result [16]: binds
binding result (human VEGF-D): no binding (tested: 5e-7 M)
binding result (human VEGF-C): no binding (tested: 5e-7 M)
binding result (human VEGF-B): no binding (tested: 5e-7 M)
% inhibition [6]: 100%
IC50 [6]: 0.213 nM
ka2 [8]: 0.024 s⁻¹
kd2 [8]: 0.00027 s⁻¹
% inhibition, VEGF HUVEC Erk phosphorylation assay (VEGF [9]): 100%
IC50 (nM), VEGF HUVEC Erk phosphorylation assay (VEGF [9]): 0.25 nM
Kd [10]: 0.69 nM
koff [11]: 0.018 s⁻¹
IC50 [12]: 0.038 nM
binding result (human PIGF): no binding (tested: 5e-7 M)
% inhibition [13]: 100%
IC50 [13]: 0.046 nM
kon [14]: 300000 M⁻¹ s⁻¹
B3: VEGFBII023 (VHH)
chain: EVQLVESGGGLVQTGDSLRLSCEVSGRTFSSYSMGWFRQAQGKEREFVVAISKGGYKYDSVSLEGRFTISKDNAKNTVYLQINSLKPEDTAVYYCASSRAYGSSRLRLADTYEYWGQGTQVTVSSGGGGSGGGGSGGGGSGGGGSGGGGSGGGGSGGGGSGGGGSEVQLVESGGGLVQAGGSLRLSCAASGRTFSNYAMGWFRQAPGKERVLVADISSSGINTYVADAVKGRFTISRDNAKNTVYLQMNSLKPEDTAVYYCAASAWWYSQMARDNYRYWGQGTQVTVSS
notes: biparatopic bivalent VHH in one chain; also called VEGFBII23B04-40GS-10E07; VEGFBI023
